Assay results reported in the nanobody polyreactivity screen of Harvey et al. (2022).

Assay: yeast display, Sf9 membrane polyspecificity reagent, FACS + sequencing; frameworks hold sequencing errors
Summary of the method: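 Galactose-induced (36–48 hours) yeast carrying a synthetic nanobody display library were exposed to 10% biotinylated, detergent-solubilized Sf9 membrane reagent at 4 °C for 1 hour. FACS followed streptavidin microbead enrichment, using low and high (top ~1%) gates for expression (anti-HA) and reagent binding (streptavidin). Colony PCR, MiSeq 2 × 250 sequencing and CDR-length filtering followed. Labels for polyreactivity reflect the gate of origin.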

Sequence	polyreactivity (PSR sort gate)
QVQLEESRGGLVQAGGSLRLSSADSGSTFDYYAKGWYRQAPGKERELVAAITSTGRTYYADSVKGRFTISRDNAKNTVYLQMNSLKPEDTAVYYCAADLPWGPLFDYWGQGTQVTVSS	low polyreactivity
QVQLEESRRGLVQARGSLRLSCASSGYIFLYYALGCYRQAPGKERELVAAITTRGGRTYYADSVKGRFTISRDNAKNTVYVQMNSLKPEDTAVYYCAVEVSWSYYSYGYWGQGTQVTVSS	low polyreactivity
QVQLEESVGGLVQAGGSLRLSCAASGSISYKYLMGWYRQAPGKEREFVASMTRIGGSTYYADSVKGRFTISRDNAKNTVYLQMNSLNAEDTAVYYCAADYAIGRLRRGDDYWGQGTQVTVSS	low polyreactivity
QVQLEESVGGLVQAGGSLRLSCAASGSTFVYYGMGWYRQAPGKERELVAAITDIGDSTNYADSVKGRFTISRDNAKNTVYLQMNSLKPDDTAVYYCAASGRSVPYYGSPRNDYWGQGTQVTVSS	low polyreactivity
QVQLEESVGGLVQEGGSLRLTCAASGRIFGNTMGWYRQAPWKEMELVAAITRSGVSTYYADSVKGRFTSSRDNAKNTVYLQMNSLKPEDTAVYYCADASSYYRGHYDYWGQGTQVTVSS	high polyreactivity
QVQLEETRGCLVQAGGSLRLSCAASGIILYAYAMGWYRQAPRKERELVAAITRRGGRTYYADSVKGRFTISRDNAKYTVYLQMNSLKPVDTAVYYGATVQSGRVRTYDYWGQGTLVTVSS	high polyreactivity
QVQLEEYGGGLVQAGGSLRLSCAAAGFTCGGYAMGWYRQAPGKDRELVATITRVGSTNYADSVKGRFTISRDNAKNTVYLQMNSLKPEDTAVYYCNTRRVYGHGNAPYDSWGQATQVTVSS	low polyreactivity
QVQLGDSGGGLVQAGGSLRLSCAASGSIFVGYAMGWYRQAPGKERELVAAISWSGDSTYYAVSVKGRFTMSRDNAKNTVYLQMNSLKPEDTAVYYCAVDYAENGPRREVEYDYWGQGTQVTVSS	low polyreactivity
QVQLGDSGGGLVQAGGSLRLSCAPSGSIFQRYAMGWYRLAPGKERELVAAISYNGGSTYYADSVKGRFTISRDNAKNTVYLQMNSLKPEDTAVYYCAARGYRKTRFDYWGQGTKVTVSS	high polyreactivity
QVQLGESGGGIVQAGGSLRLSCAASGIIFARYAMGWSRQAPGKERELVAAISRRGTSTYYADSVKGRFTISRDNAKNTVYLQMNSLKPEDTALYYCAARQLFYLPGPRVDAWGQGTQVTVSS	high polyreactivity
QVQLGESGGGIVQAGGSLRLSCAASGIIFYPYTMGWYRQAPGKERELVAAINSGGSTYYADSVKGRFTISRDNAKNTVYLQMNSLKPEDTAVYYCAAEEALDWYDDWIVSYDYWGQGTQVTVSS	low polyreactivity
QVQLGESGGGLFQAGGSLRLSCAASGRTFVTYAMVWYRQAPGKERELVAAISKRGSRTYYADSVKGRFTISRDNAKNTVYLQMNTLKPEDTAVYYCAVVYSIYTRGYDYWGQGTQVTVSS	high polyreactivity
QVQLGESGGGLLQAGGSLRLSCAASGRTISKNGMGWYRQAPGKERELVAAISGSGGTTYYADSVKGRFTISRDNAKNTVYLQMNSLKPEDTAVYYSADRYTVSRSGYWGLGTQVTVSS	high polyreactivity
QVQLGESGGGLVPARGSLRLSRAASGSTFTTNAMGWYRQAPGKEREFVAAITSSGGSTYYADSVKGRFTISRDNAKNTVYLQMNSLNPEDTAVYYCIADGDPSQKLFGRSYDYWGQGTQVTVSS	low polyreactivity
QVQLGESGGGLVQAGGRLRLSCAASGFTFNTYAMGWYRQAPGKVRALVATITSDGSTTYADSVKGRFTISRDNAKNTVNLQMNSLKPEDTAVYYFNARVWVHRYYYYFTHIITYDYWGQGTQVTVSS	low polyreactivity
QVQLGESGGGLVQAGGSLRLCCAASGRIFVRYTRGWYRQAPGKERELVAAIDQRGGSTYYADSVKGRFTISRDNANNTVSLQLNSLKPEDTAVYYCARVASRTRPGYGYWGQGTQVTVSS	low polyreactivity
QVQLGESGGGLVQAGGSLRLICAASGSTFWTNDMGWYRQAPGKERELVAPISQSAGDTYYADSVKARFTISRDNSKNTFYLQMISLKPEDTAVYYCAADLVFYPFTWDGYYYWGQGTQVTVSS	low polyreactivity
QVQLGESGGGLVQAGGSLRLSCAASARNSSFYEMGWYRQAPGKGSELVAAINWDDGTTYYADSVMGRFTISRDNAQNNVYFQKNSLNPEDTAVYYCAVEGFSSAAYDFEYWGQGSQVTVSS	high polyreactivity
QVQLGESGGGLVQAGGSLRLSCAASGFTFDVNAMGWYRQATGKERELFAGITTSDGSTYYADSVKGRFTISRDNAKNTVYLQMNSLQPEDTAVYYCAAAITWYQLYQRSGGDYWGQGTQVTVSS	low polyreactivity
QVQLGESGGGLVQAGGSLRLSCAASGFTFQEYAMGWYRQAPGKDRELVAAITSGTTTNYADSVKGRFTISRDNAKNTVYLQMNSLKPEDTAVYYCNVRRQSGRYRVYEYDYWGQGTQVTVSS	low polyreactivity

Sequence	polyreactivity (PSR sort gate)
QVQLGESGGGLVQAGGSLRLSCAASGFTFTRYAMGWYRQAPGKERELVAAIRWSGGRTYFADSVKGRFTISRDNAKNTVYLEMNRLKPEDTAVYYCNAVFYDPRREYDYWGQGTQVTVSS	high polyreactivity
QVQLGESGGGLVQAGGSLRLSCAASGFTFYRYTLGWYRQEPGKERELVAAITWSGGNTYYADSVKGRFTISRDNAKNTVYLQMNSLKPEDTAFYYCAAYKPYSKYNYWGQGTQVTVSS	high polyreactivity
QVQLGESGGGLVQAGGSLRLSCAASGGTFSQYAMGWYRHAPGKERELVARISRRGGSTSYADSVKGRFTISRDNAKNTVYLQMNSLKPEDTAVYYCAKDAPSVYPGRFGNTGGYAYDYWGQGTQVTVSS	high polyreactivity
QVQLGESGGGLVQAGGSLRLSCAASGGTFTSYAMGWYRQAPGKERELVAGITSSGGNTYYADSVKGRFTISRDNAKNTVYLQMNSLKPEDTAVYYCAAKSGRGRTMDYWGQGTQVTVSS	high polyreactivity
QVQLGESGGGLVQAGGSLRLSCAASGIIFLGYAMGSYRQAPGKERELVAAFYSGVRTYYADSVKGRFTISRDNAKNTVYLQMNSLKPEDTAVYYCNATWTPYSSKQYYYWGLGTQVTVSS	low polyreactivity
QVQLGESGGGLVQAGGSLRLSCAASGIIFYEYVMVWYRQAPGKEREFVATISSIGGSTYYADSVKGRFTISRDNAKNTVYLQMNSRKPADTAVYYCAADPDPVVAPGGNWYGDDYWGQGSQVTVSS	high polyreactivity
QVQLGESGGGLVQAGGSLRLSCAASGITFERNAMGWYRQAPGKERELVAAWSGGGTYYADSVKGRFTISRDNAKNTVYLQMDSLKPEDTAVYYCAADYRYDLSIGVNYWGQGTQVTVSS	low polyreactivity
QVQLGESGGGLVQAGGSLRLSCAASGLTFDPNAMGWYRQAPGKERELVATITQTDGSTYYADSVKGRFTISRDNAKNTVYLQMNSLKPEDTAVYYCAVDVDEPRYRRPFHHDYWGQGTQVTVSS	low polyreactivity
QVQLGESGGGLVQAGGSLRLSCAASGLTLYLYTMGWYREAPGKEMELVASIDSGTSTKYADSVKGRFTISRDNAKNTVYLQMNSLKPEDTAVYYCAAGVWVTRYFRYYYWGQGTLVTVSS	low polyreactivity
QVQLGESGGGLVQAGGSLRLSCAASGNTFGTYAMGWYRHAPGKERELVAAITWRGGRTTYADSVKGRFTISRDNAKNTVYLQMIRLIPEDTAVYYCAAVIHWWYATYDYWGQGTQVTVSS	high polyreactivity
QVQLGESGGGLVQAGGSLRLSCAASGRIFAGYAMGWYRQAPGKERELVATISSGGSTYYADSVKGRFTISRDNAKNTVYLQMHSLKPEDTAVYYCAAEYATRQYSSYYNLFNYCGQGTQVTVSS	low polyreactivity
QVQLGESGGGLVQAGGSLRLSCAASGRIFAWNAMGWYRQAPGKERELVAAITYNGGSTYYADSVKGRFTISRDNAKNTVYLQMNSLKPEDTAVYYCNKVTRSPAQGYGYWGQGTQVTVSS	high polyreactivity
QVQLGESGGGLVQAGGSLRLSCAASGRIFQIYGMGWYRQAPGKERELVASISSGDSTNFADSVKGRFTISRDNAKNTVYLQMNSLIPEDTAVYYCAARSRRAYNYWGQGTQVTVSS	high polyreactivity
QVQLGESGGGLVQAGGSLRLSCAASGRIFYLNVMGWYRQAPGKERELVAAITRRDVTTYADSVKGRFTISRDNAKNTVYLQMNSLKPEDTAVYYCNAVYYNWIGFDYWGQGTQVTVSS	low polyreactivity
QVQLGESGGGLVQAGGSLRLSCAASGRIYAAYAMGWSRQAPGKERELVAAISGSGGSTSYADSVKGRFTISRDNAKNTVYLQMNSLKPEYTAVYYCAADYSYLAEFDYWGQGTQVTVSS	low polyreactivity
QVQLGESGGGLVQAGGSLRLSCAASGRNFENNAMGWYRQAPGKERELVASIRGGGSTNYADSVKGRFTISRDNAKNTVYVQMNSLKPEDTAVYYCNADYWWSYVRFDYWGQGTQVTVSS	low polyreactivity
QVQLGESGGGLVQAGGSLRLSCAASGRTFDYYAMGWYRQAPGKEWQLVAAISGSGGTTYYADSVKGRFTISRENAKNTVYLQMNSLKAEDTAVYNCDTVRSRLFGQYYYWGQCTQVTVSS	high polyreactivity
QVQLGESGGGLVQAGGSLRLSCAASGRTFPYNAMGWYRQAPGKERELVAAISSGGSTNYADSVKGRFTISRDNAKNTVYLQMNSLKQEDTAVYYCAVTGWPRYTWYSYGYWGQGTQVTLSS	low polyreactivity
QVQLGESGGGLVQAGGSLRLSCAASGSIFRYYAMGLYRQAPGKERELVAAISGSGGITRYADSVKGRFTISRDNAKNTVYLLMNSLKPEDTAVYYCATRPGTRPAYDYWGQGTQVTVSS	high polyreactivity
QVQLGESGGGLVQAGGSLRLSCAASGSIFSRYTMGWYREAPGKERELVAAITSSGGRTYYADSVKGRFTISRDNAKNTVYLQMNRLKAEDTAVYYCAARYFSSFPLYYYWGQGTQVTVSS	high polyreactivity
